From the supplement of paper PMC12764529
± gives the half width of the 95% confidence interval.

Assays:
[1] = folding stability dG unfold from chymotrypsin proteolysis; higher = more stable
Outline: (§1)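 Designed mini-proteins (under 80 residues, no cysteine) in a PA-tagged cDNA display construct were digested with trypsin and chymotrypsin. Each protease was used at 11 concentrations (threefold dilutions) plus a no-protease condition, followed by sequencing. K50 was inferred by Bayesian fitting of sequencing counts, and unfolding free energy was derived against a sequence-predicted unfolded-state K50 and a shared folded-state K50, per protease or combined. Only designs with AlphaFold2 dimer inter-PAE above 15 were kept.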

[2] = folding stability dG unfold from trypsin proteolysis; higher = more stable
Outline: as §1

[3] = folding stability dG unfold (combined trypsin and chymotrypsin); higher = more stable
Outline: as §1

| Sequence | folding stability dG unfold [1] | folding stability dG unfold [2] | folding stability dG unfold [3] |
| --- | --- | --- | --- |
| EKYIVKIKITVRRKVETETLPDGSKKTRYETKTLEIEIEVSLEELKKLLEELNLPEDEITSVEIEVYPEEES [r1_351_TrROS_Hall] | 19.2 ± 1.34 kJ/mol | 13.8 ± 1 kJ/mol | 18 ± 3.05 kJ/mol |
| EMTEEELREKLPELSPEELEELARKLAEELGIEEVEEVEVVSVKPDGTIEVKVKLKDGEELTIEIPLEELLS [r1_435_TrROS_Hall] | 8.68 ± 0.628 kJ/mol | 11.7 ± 1.09 kJ/mol | 10.3 ± 0.92 kJ/mol |
| ERDLIVIAGDDLTPEQLRELLEELGFRPEDAEIFREGDALLIVLPDAVILVVRPPPLPVLSEDDPELLEEAS [r1_57_TrMRF] | 13.7 ± 0.962 kJ/mol | 13.5 ± 0.669 kJ/mol | 13.4 ± 0.837 kJ/mol |
| ETIYLSSSNPEEVIKALKEAASKGKTVVVEANPEFFKEFIAQGFKVEKILKIEPIPGGDGYRAEIKISPGGS [r1_173_TrMRF] | 8.16 ± 0.264 kJ/mol | 6.86 ± 0.343 kJ/mol | 8.23 ± 0.586 kJ/mol |
| FKFKITELSFNPEWGYIHFNVKVEGPDGQPQTFPIMIRIRIPPPPPPPPPPMRADPDGKVRNPDDGKEHDAS [r1_270_TrROS] | 20.5 ± 1.13 kJ/mol | 13.8 ± 0.418 kJ/mol | 17.8 ± 2.64 kJ/mol |
| GEVVERLKLPDLELVEVRTTTEGDTTFVYVKLKRPDSYYVVKLTVTPATGEVTVTEEKKVSPNETLEEVLAS [r1_383_JUSTAS] | 11.5 ± 0.502 kJ/mol | 6.95 ± 0.502 kJ/mol | 9.86 ± 0.879 kJ/mol |
| GFEVTAEIEVYEDPESGAKVVKVTIPVKNGDPEVLEKAAKELAKKLFGPGAKFDPKIDPETGRVEVTGVLAS [r1_273_TrMRF] | 6.57 ± 0.293 kJ/mol | 3.94 ± 0.192 kJ/mol | 5.79 ± 0.544 kJ/mol |
| GKAEVVRVEYDPETGALRVVLRREGADVVLEVDPETGVARVYFPADPRVLEFEFDTLEEAVDAAVALLEAGS [r1_177_TrMRF] | 19.5 ± 0.586 kJ/mol | 15 ± 0.711 kJ/mol | 18.2 ± 0.586 kJ/mol |
| GLTVTLDGNSLTVTADAGDKTVTVTAPVFHPEKGLVTVVTVTATREDGALVLHTESRTIRLPPLPPLHPDLS [r1_100_TrMRF] | 17.5 ± 2.38 kJ/mol | 9.27 ± 1.21 kJ/mol | 15 ± 1.8 kJ/mol |
| GLVDEDGKEVFPEVPLVIELDVPENLPDGKKLSPEEVEKLVKGLAEKLKKEYNVKKVEAERKGNKVLILVGS [r1_369_TrMRF] | 2.17 ± 0.628 kJ/mol | 2.88 ± 0.243 kJ/mol | 2.95 ± 0.418 kJ/mol |
| GMNLKETTVTIPLKVKSEEEAKKKAEEIANELKKKYPDIIEIKIEIKEIDKETGIVIITIKFKAKNSSVLLS [r1_52_JUSTAS] | 5.32 ± 0.586 kJ/mol | 9.14 ± 1.38 kJ/mol | 8.36 ± 2.3 kJ/mol |
| GSAGVMFGSREDIEALAAALGPDVAPTDVTYDPSGYYYYTIPLPDGTPTSLTIPPDKYSPEEVAALARRLTS [r1_279_JUSTAS] | 2.94 ± 0.628 kJ/mol | -1.45 ± 2.34 kJ/mol | 2.01 ± 0.586 kJ/mol |
| GSMTIPVVLPPGVRLPLSELWAIAKQYGGKLTATVYDPETGTSTSVTFPGGQLGDSTMAPGERTVNVTVVGS [r1_238_JUSTAS] | 3.45 ± 0.377 kJ/mol | 2.2 ± 0.13 kJ/mol | 3.18 ± 0.318 kJ/mol |
| GSNAVEVTLEVEVTITDPKTPDNKTTTVTIPLTVKLPPSVTSLEELEALARERAEAVAAELGGTVVTVTPVS [r1_300_JUSTAS] | 10.1 ± 0.28 kJ/mol | 10.9 ± 0.41 kJ/mol | 10.4 ± 0.372 kJ/mol |
| GSVTIELVVPKGVDIPLALLAGIASTGKGKVTARISNPLSGKEIEVTFPGGGLGEAGVTEGINVVRLTVYGS [r1_238_TrMRF] | 5.38 ± 0.46 kJ/mol | 3.64 ± 0.418 kJ/mol | 5.04 ± 0.795 kJ/mol |
| GYTITSEVEEFEDPNSDAKYTKVTIPVVDGDPEVAREAAEEIAKERFGPGATLDIKYDPETGTVTATFTVAS [r1_273_JUSTAS] | 1.58 ± 0.418 kJ/mol | 2.14 ± 0.109 kJ/mol | 2.35 ± 0.339 kJ/mol |
| ITIRIPPNGNIRIEMIDPNGKWWTYTFPVKDPEENLQRLKDIIRDFFPGFEDVDVKITEVEDGWVTITVPLS [r1_389_TrROS] | 20.7 ± 0.962 kJ/mol | 16.9 ± 0.711 kJ/mol | 19.9 ± 0.879 kJ/mol |
| KIEIVEIKKENGKITIKVKNPIPNAKLIIYLFNPKGEIVSAKTHPGPEVELEIEVPENESFSVLVKLFPPKS [r1_382_TrMRF] | 17.8 ± 0.347 kJ/mol | 14 ± 0.502 kJ/mol | 16.7 ± 0.586 kJ/mol |
| KIKIEPGETVRIKVKVKLPDGEEKEIEIELSLEELEKKLGRPLTPEEILNLIKEEAEKKGFEVEEVEIEKES [r1_338_TrROS_Hall] | 5.76 ± 0.502 kJ/mol | 1.64 ± 0.502 kJ/mol | 4.02 ± 1.51 kJ/mol |
| KIPITIEEDPEDKMYELRVPDGMPIQIQRSKDGYRVSIWNPDNGKPREIPITKKDLKDLLSNPGFWIEIYKS [r1_18_TrROS] | 6.53 ± 0.326 kJ/mol | 6.87 ± 0.259 kJ/mol | 7.42 ± 0.46 kJ/mol |
| KIVILEPGEEAELPGVKVIPVDGLRIREVEVNGKKILVIEMSEEEIENGNEEELEKLRELAEELGADEVILS [r1_438_TrROS_Hall] | 5.33 ± 0.259 kJ/mol | 4.73 ± 0.301 kJ/mol | 4.75 ± 1.09 kJ/mol |

| Sequence | folding stability dG unfold [1] | folding stability dG unfold [2] | folding stability dG unfold [3] |
| --- | --- | --- | --- |
| KKIHIMFNNPQHVRRIAKKLGPNVKPDDVKKNPNGYYYFEIDLPNGRPIDIHIPSENMPAEDIVDYALEMLS [r1_279_TrROS] | 3.6 ± 0.372 kJ/mol | 3.68 ± 0.0837 kJ/mol | 3.74 ± 0.243 kJ/mol |
| KKKILIFITGDNPELAERIRKELEELGYDVEVKVVTTPEEMEKAIEEAEKTDIVIVIHLPPALPLSPELAFS [r1_497_TrMRF] | 2.97 ± 0.502 kJ/mol | 10.8 ± 0.544 kJ/mol | 7.94 ± 0.795 kJ/mol |
| KMEIKIEVEKVKDEETGEEYIEVKIVVKKENVEEALEKVKKILEEEFNYEIVDVKVEKKDDYVVITVKIRLS [r1_337_TrROS_Hall] | 9.23 ± 1.72 kJ/mol | 13.2 ± 0.92 kJ/mol | 12.1 ± 2.22 kJ/mol |
| KSKEEQKEQQEEQQKPPPVEIKVEVEVVKSPNGNPYFQFNVEYYDPGDGEPIGEITISVPPDDVDELADEFS [r1_415_TrROS] | 11 ± 1.05 kJ/mol | 8.25 ± 1.67 kJ/mol | 10.3 ± 2.97 kJ/mol |
| KTISSDELLELLGVSKSELKKLPLEAIVDEVKKALPPGVAVSAKAEPIPENPSYTIVVELKNGEPVTITLDS [r1_340_TrMRF] | 4.2 ± 0.109 kJ/mol | 4.45 ± 0.172 kJ/mol | 4.03 ± 0.502 kJ/mol |
| KTLVIHAKTPEEILAAIKEAIKEGKTVVIEMSPELIEALKEAGFEIEKIEEVEEIDGKKIYRVVIEVKPKES [r1_173_TrROS_Hall] | 14.1 ± 0.243 kJ/mol | 6.93 ± 0.351 kJ/mol | 12 ± 0.837 kJ/mol |
| KTVMIMFKNPEQILNQLREARDDGKTVSIMFPDEWINELKNLGFKIDKITDVQPMPGNDSYMVEIKIKPKDS [r1_173_TrROS] | 9.66 ± 0.502 kJ/mol | 5.41 ± 0.502 kJ/mol | 8.17 ± 0.837 kJ/mol |
| MEELEKLPGIKVEPIREEDGRLYLRVTFTDEVAKALGKPPVTVLIEVEPGEELELSPELRELLRKLGIEVVS [r1_256_TrROS_Hall] | 18.2 ± 0.46 kJ/mol | 10.9 ± 0.255 kJ/mol | 16.1 ± 0.502 kJ/mol |
| MEIIKKLKIPDYEIVSVKTKKIGNKVIVVVVLKKEKEYYVIVAEINPETKEIKIISIKKLKENETLEDFISS [r1_383_TrMRF] | 16.5 ± 0.46 kJ/mol | 13.4 ± 1.09 kJ/mol | 15.7 ± 1.34 kJ/mol |
| MEIKKIELKVEEKDGKLVLTVKIEVFDKNGKLVKKVEIKLEVPKELKEGQSLEELPLSEELRKLVKELLEKS [r1_354_TrROS_Hall] | 15.9 ± 1.42 kJ/mol | 13 ± 1.09 kJ/mol | 14.8 ± 2.93 kJ/mol |
| MEKVLILAKIKLKGPDGEEAEIDFAVEISPEEATPELLKKVREEAEEIAEALKEKGYEVELEVEVVKLGEES [r1_221_TrMRF] | 12.1 ± 1 kJ/mol | 15.2 ± 2.01 kJ/mol | 13.6 ± 2.72 kJ/mol |
| MEPPPVVVLEIEIEVPAEDEELRNMTAEELAARLAEELEALPGLKVVSVEVVEVEERPDGTLRVRIRVTIES [r1_484_TrROS_Hall] | 9.69 ± 0.586 kJ/mol | 15.5 ± 1.97 kJ/mol | 15 ± 3.31 kJ/mol |
| MKETVTVDITVVVEDENGKKHLVRVKVTVEKLPDGTYRVTIEVENLETGKTETIEIEVKGAEFKPGDVIEIS [r1_14_TrROS_Hall] | 10.7 ± 0.628 kJ/mol | 13.4 ± 0.628 kJ/mol | 12 ± 0.502 kJ/mol |
| MKIKEVKVFPLPGENTIVILVTGEFDSFYIPETGKPIPSSAKITLIEVIKVPEDSDEAEVESSLLILPDAES [r1_147_TrMRF] | 6.12 ± 0.28 kJ/mol | 4.51 ± 0.28 kJ/mol | 5.88 ± 0.669 kJ/mol |
| MKPGETKTLTLTIVDEETGETYTVKVTVTYDEDTGVVTIKAEITYPDGRKFTVTARFNRETGELTEISIEPS [r1_144_TrROS_Hall] | 18.6 ± 0.314 kJ/mol | 16.5 ± 0.364 kJ/mol | 18.1 ± 0.41 kJ/mol |
| MMTKEEIEKLAEELAKELEKKGYKIVKVEIEEVKPGEVKIKVDGKEITITLKDGRKLRIKVEVKKLPKEELS [r1_31_TrROS_Hall] | 15.2 ± 0.46 kJ/mol | 8.24 ± 0.222 kJ/mol | 12.7 ± 0.46 kJ/mol |
| MNIPLKEILDKAKAEGKPVVFPDGTKTLSFEPGGKATIEKPVEVPGKPGVPLETKTYTIDINEDGSVTVNDS [r1_284_JUSTAS] | -1.17 ± 0.628 kJ/mol | -3.66 ± 0.711 kJ/mol | -1.56 ± 0.397 kJ/mol |
| MNLSDPVSVAKLKKALEEIKKAIEELKKKGKKIEILAIELNDDSIKITPVTKSEEYIKKKKEEGIEIILLLS [r1_134_JUSTAS] | 2.83 ± 1.55 kJ/mol | 6.37 ± 0.172 kJ/mol | 5.78 ± 0.837 kJ/mol |
| MNVTINITVLSPDSSGYTMKATVTFPETPVTTSKEYKTSDPVSAVEEIIKELVDEENLSNATVTTYPSSRLS [r1_399_JUSTAS] | 1.58 ± 1.46 kJ/mol | -2.35 ± 0.92 kJ/mol | 0.18 ± 0.795 kJ/mol |
| MPDISRAEIKALAEKLGLPVPDGTITIKFTYGDKTITVPVDAKKDITLGDIVEAIKKKNPNIKKIEIVAEPS [r1_135_TrMRF] | 3.38 ± 0.335 kJ/mol | 4 ± 0.184 kJ/mol | 3.8 ± 0.322 kJ/mol |
| MRITLEHPDIKRLTIEFRPMPDGYFRMDIKVERPDGKPVPIPFPMRYEDGKMTPEMMEQMIDEAVEEALADS [r1_124_TrROS] | 2.58 ± 0.837 kJ/mol | 2.54 ± 0.322 kJ/mol | 2.88 ± 0.879 kJ/mol |
